This is an account of results in patent US9487561B2, “Biologically active complex and its preparation” (HAMLET PHARMA AB, priority 2010, dated 2016).

In one test the test system is tumor cells. Briefly: Tumoricidal Activity of Oleate-HAMLET (cell death method of Example 1). The test is classed as cell-based. The conditions noted are these: 0.5 mg/ml.
Test [1] relates to healthy, differentiated pediatric kidney cells. The test is described as follows: extended microarray analysis (Illumina HumanHT-12). The test is classed as cell-based, human. On the procedure: (§1) For the extended microarray analysis, gene expression was assessed by whole genome Illumina microarrays (HumanHT-12 Expression BeadChip). Data was normalized using cross-correlation (Chua et al., 2006 Nucleic Acids Research 34: e38). Genes with a log 2 fold change ≧1.2 in tumor cells and ≧2.0 in healthy, differentiated cells at any time point were regarded as differentially expressed (Benjamini-Hochberg adjusted p-value <0.05).
(§2) To examine the molecular basis of the difference in HAMLET susceptibility between carcinoma cells and healthy, differentiated cells, transcriptional profiles were compared. […] These cytokines were not secreted by the carcinoma cells.

Test [2] deals with p38, HSP27 in healthy, differentiated kidney cells. The test is described as follows: MAPK phosphorylation in healthy cells. The test is classed as cell-based, human.
For a further test, the system named is bladder cancer. Conditions: local instillations; cited from earlier work.
Test [3] has as its system kidney carcinoma (A498) cells. Briefly: extended microarray analysis (Illumina HumanHT-12). The test is classed as cell-based, human. On the procedure:
as §1
To identify the pathways that execute tumor cell death downstream of the ion channels, we further examined the global transcriptional responses to HAMLET in human lung carcinoma (A549) and kidney carcinoma (A498) cells over an extended period of 15 min to 24 hours. The p38 MAPK signaling pathway was identified as a top-scoring canonical pathway in A549 cells (FIG. 4A).
as §2

Method for tumor cells: Cells were detached from cell culture flasks with versen (0.2 g EDTA in 200 ml H2O and 800 ml PBS), washed with PBS and resuspended in serum-free RPMI-1640. HAMLET dissolved in PBS was incubated with cells (0.5×10^6/ml for A549, A498 and HeLa cells; 1×10^6/ml for Jurkat) at 37° C. FCS was added after 1 hour. Cell death was quantified by trypan blue exclusion (Chroma Gesellschaft Schmid & Co) or by measuring ATP levels (ATPlite Kit, PerkinElmer, Infinite 200, Tecan).

B1: HAMLET (protein, UniProt P00709 20-142, looked up)
Alpha-lactalbumin: KQFTKCELSQLLKDIDGYGGIALPELICTMFHTSGYDTQAIVENNESTEYGLFQISNKLWCKSSQVPQSRNICDISCDKFLDDDITDDIMCAKKILDIKGIDYWLAHKALCTEKLEQWLCEKL
modifications: oleic acid complex
For B1, in the test with tumor cells (Control 88), the Trypan blue was determined as 8. This molecule displayed an ATP Activity with tumor cells (Control 100) of 21%. Besides, the “number of genes responding to HAMLET” value is 2064 genes in test [1] and 4424 genes in test [3]. Moreover, in test [2], the “phosphorylation of p38, its isoforms, or HSP27” value is recorded as “no phosphorylation of p38, its isoforms, or HSP27”. In addition, in the test on bladder cancer, the “death of tumor cells vs healthy tissue” value is listed as “caused rapid death of tumor cells but not of healthy tissue surrounding the tumor”.
